{"source": "patent US9890400B2", "about": "“Method of production of 2,4-dihydroxybutyric acid” (ADISSEO FRANCE S.A.S., priority 2012, dated 2018)", "proteins": {"B1": {"name": "M. extorquens malyl-CoA lyase (Me-Mcl), wild type, SEQ ID No. 1 (Methylorubrum extorquens AM1) (protein)", "chain": "MSFTLIQQATPRLHRSELAVPGSNPTFMEKSAASKADVIFLDLEDAVAPDDKEQARKNIIQALNDLDWGNKTMMIRINGLDTHYMYRDVVDIVEACPRLDMILIPKVGVPADVYAIDVLTTQIEQAKKREKKIGFEVLIETALGMANVEAIATSSKRLEAMSFGVADYAASTRARSTVIGGVNADYSVLTDKDEAGNRQTHWQDPWLFAQNRMLVACRAYGLRPIDGPFGDFSDPDGYTSAARRCAALGFEGKWAIHPSQIDLANEVFTPSEAEVTKARRILEAMEEAAKAGRGAVSLDGRLIDIASIRMAEALIQKADAMGGK", "notes": "full length 324 aa"}, "B2": {"name": "Sulfolobus tokodaii malonyl-CoA reductase (St-Mcr), wild type, SEQ ID No. 7 (Sulfurisphaera tokodaii str. 7) (protein)", "chain": "MILMRRTLKAAILGATGLVGIEYVRMLSNHPYIKPAYLAGKGSVGKPYGEVVRWQTVGQVPKEIADMEIKPTDPKLMDDVDIIFSPLPQGAAGPVEEQFAKEGFPVISNSPDHRFDPDVPLLVPELNPHTISLIDEQRKRREWKGFIVTTPLCTAQGAAIPLGAIFKDYKMDGAFITTIQSLSGAGYPGIPSLDVVDNILPLGDGYDAKTIKEIFRILSEVKRNVDEPKLEDVSLAATTHRIATIHGHYEVLYVSFKEETAAEKVKETLENFRGEPQDLKLPTAPSKPIIVMNEDTRPQVYFDRWAGDIPGMSVVVGRLKQVNKRMIRLVSLIHNTVRGAAGGGILAAELLVEKGYIEK", "notes": "full length 359 aa"}, "B3": {"name": "Metallosphaera sedula succinic semialdehyde reductase (Ms-SSR) mutant H39R, SEQ ID No. 32 (Metallosphaera sedula DSM 5348; H39R) (protein)", "chain": "MKAAVLHTYKEPLSIEDVNISQPKAGEVKIKVKATGLCRSDVNVFEGKTPVPPPVVAGHEISGIVEEVGPGVTRVKPGDRVISAFIHPCGKCGNCVAGKENLCETFSQVRLKGVMPDGTSRLSKDGKEIRTFLGGGFAEYAIVGENALTRVPEDMDLEKVAVLGCAGLTGYGAISSSKIEPGDTVAVIGVGGVGLSTIQLLRASGAGRIIAVGTKKWKLDRAMELGATDVVNSKEIDPVKAIKEITGGGPQVVIEAGGNEDTIHMALDSVRIGGKVVLVGLPPATAMIPIRVASIVRGGIEVVGNYGGRPRVDMPKLLELVRQGRYDPSRLVTGRFRLEEINEAVKMLEEGEAIRSLIIP"}, "B4": {"name": "Metallosphaera sedula succinic semialdehyde reductase (Ms-SSR) mutant N43H, SEQ ID No. 34 (Metallosphaera sedula DSM 5348; N43H) (protein)", "chain": "B3 chain with R39H, N43H"}, "B5": {"name": "Metallosphaera sedula succinic semialdehyde reductase (Ms-SSR) double mutant H39R N43H, SEQ ID No. 36 (Metallosphaera sedula DSM 5348; H39R/N43H) (protein)", "chain": "B3 chain with N43H"}, "B6": {"name": "Metallosphaera sedula succinic semialdehyde reductase (Ms-SSR), wild type, SEQ ID No. 16 (Metallosphaera sedula DSM 5348) (protein)", "chain": "B3 chain with R39H", "notes": "full length 360 aa"}}, "key": {"[1]": {"substrate": "O=CC(=O)O", "experiment": "Malyl-CoA lyase assay coupled to citrate synthase / DTNB", "format": "biochemical, M. extorquens", "details": "other: pH 7.5, 37° C., 1 mM acetyl-CoA", "description": "Construction of plasmids containing wild-type genes coding for malyl-CoA lyase: The DNA sequences of the mcl genes coding for malyl-CoA lyase in M. extorquens (Arps et al., 1993) and Rhodobacter capsulatus (Meister et al., 2005) were optimized for the expression in Escherichia coli using the GENEius software (Eurofins). The optimized sequences were synthesized by Eurofins MWG OPERON® adding NheI and EcoRI restriction sites upstream of the start codon and downstream of the stop codon of mcl, respectively, which allowed direct cloning of the synthesized DNA fragments into the pET28a+ vector (Novagen) using T4 DNA ligase (Biolabs). […]\nMalyl-CoA lyase activity was assayed using a method adapted from (Meister et al., 2005). Malyl-CoA synthesis by malyl-CoA lyase was coupled to the citrate synthase-catalyzed release of coenzyme A which was monitored by its spontaneous reaction with DTNB. […]\nThe reaction mixture according to Assay 1 contained 50 mM MOPS/KOH (pH 7.5), 0.25 mM DTNB, 5 mM MgCl2, 1 mM acetyl-CoA, 20 U/mL citrate synthetase (all products from Sigma), and appropriate amounts of purified malyl-CoA lyase or cell extract. […] The reactions were followed by the characteristic absorption of DNTB at 412 nm (εDNTB+CoA=13.6 mM^−1 cm^−1) in a microplate reader (BioRad 680XR)."}, "[2]": {"substrate": "CC(C)(COP(=O)(O)OP(=O)(O)OC[C@H]1O[C@@H](n2cnc3c(N)ncnc32)[C@H](O)[C@@H]1OP(=O)(O)O)[C@@H](O)C(=O)NCCC(=O)NCCSC(=O)CCC(=O)O", "experiment": "purified protein, by the assay type", "details": "other: reductive sense, succinyl-CoA added directly, NADPH, pH 7.5, 37° C., pH 7.5"}, "[3]": {"substrate": "O=CCCC(=O)O", "experiment": "purified protein, by the assay type", "details": "other: oxidative sense, 1 mM NADP, 0.5 mM coenzyme A, pH 9, 37° C., pH 9.0"}, "[4]": {"substrate": "O=CC[C@H](O)C(=O)O", "experiment": "purified protein, by the assay type", "format": "biochemical, Sulfolobus tokodaii", "details": "other: oxidative sense, 1 mM NADP, 0.5 mM coenzyme A, pH 9, 37° C.", "description": "NCBI references of the utilized mcr and sucD protein sequences, and the references for the corresponding natural and synthetic DNA sequences are listed in Table 2.\nTo purify St-Mcr, frozen cell pellets of expression cultures were resuspended in 0.5 mL of breakage buffer (50 mM Hepes, 300 mM NaCl, pH 7.5) and broken open by four successive rounds of sonication (sonication interval: 20 sec, power output: 30%, sonicator: Bioblock Scientific, VibraCell™ 72437). Cell debris were removed by centrifuging the crude extracts for 15 min at 4° C. at 13000×g and retaining the clear supernatant. Native proteins of E. coli were removed by heat precipitation at 85° C. during 30 min followed by centrifugation at 13000×g. […]\nAssay 1 (Reaction Scheme): glyoxylate+acetyl-CoA→malyl-CoA+acetate Malyl-CoA lyase: (L)-Malyl-CoA+NADPH→(L)-Malate semialdehyde+Coenzyme A+NADP Malyl-CoA reductase: Assay 2 (Reaction Scheme): (L)-Malate semialdehyde+Coenzyme A+NADP→(L)-Malyl-CoA+NADPH The reaction mixture according to Assay 1 contained 50 mM MOPS/KOH (pH 7.5), 10 mM glyoxylate, 4 mM acetyl-CoA, 5 mM MgCl2, 0.25 mM NADPH (all products from Sigma), 5 U/mL of malyl-CoA lyase, and appropriate amounts of purified malyl-CoA reductase or cell extract. […] The reactions were followed by the characteristic absorption of NADPH at 340 nm (εNADPH=6.22 mM^−1 cm^−1) in a microplate reader (BioRad 680XR). […]"}, "[5]": {"substrate": "O=CC[C@H](O)C(=O)O", "experiment": "Malate semialdehyde reductase activity", "format": "biochemical, Metallosphaera sedula", "details": "other: malate semialdehyde, NADH or NADPH, pH 7.5, 30° C., average of at least two independent experiments", "description": "(§1) Test for Malate Semialdehyde Reductase Activity: (L)-Malate semialdehyde+NAD(P)H→(L)-2,4-dihydroxybutyric acid+NAD(P) Reaction scheme:\n(§2) The assay mixture contained 200 mM Hepes (pH 7.5), 50 mM KCl, 5 mM MgCl2, 0.24 mM NADH or NADPH, and appropriate amounts of purified enzyme or cell extract. Reactions were started by adding 10 mM (L)-malate semialdehyde (malate semialdehyde was prepared freshly for each test, see Example 3). Enzymatic assays were carried out at 30° C. in 96-well flat bottomed microtiter plates in a final volume of 250 μL. The reactions were followed by the characteristic absorption of NAD(P)H at 340 nm (εNADPH=6.22 mM^−1 cm^−1) in a microplate reader (BioRad 680XR).\nSite-directed mutagenesis was carried out using the oligonucleotide pairs listed in Table 6 and the pET28-Mse-SSR plasmid as the template. Point mutations to change the amino acid sequences were introduced by PCR (Phusion 1U, HF buffer 20% (v/v), dNTPs 2.5 mM, direct and reverse primers 1 μM each, template plasmid 200 ng, water). When possible, plasmids created by PCR contained new restriction sites (introduced using silent mutations) in addition to the functional mutation to facilitate identification of mutated clones. The PCR products were digested by DpnI at 37° C. for 2×2 h to remove template DNA, and transformed into NEB DH5-α competent E. coli cells (NEB). The mutated plasmids were identified by restriction site analysis and verified to carry the desired mutations by DNA sequencing."}, "[6]": {"substrate": "O=CC[C@H](O)C(=O)O", "experiment": "Malate semialdehyde reductase activity", "format": "biochemical, Metallosphaera sedula", "details": "other: malate semialdehyde, NADH or NADPH, pH 7.5, 30° C., average of at least two independent experiments", "description": "To identify a suitable 2,4 DHB dehydrogenase, beta-hydroxyacid dehydrogenases from different biological sources were tested for their ability to reduce malate semialdehyde. […] The genes YPR1, 4hbdh, yqhD, and Ms-SSR were amplified using primers listed in Table 5 and cloned into vector pET28 (restriction enzymes see Table 5) yielding plasmids pET28-Sce-YPR1, pET28-Pgi-4-hbdh, pET28-Eco-yqhd and pET28-Mse-SSR, respectively. The proteins were expressed and purified as described in Example 1.\nas §1, §2", "remark": "listed apart in the source"}}, "note": "Numbering of substitutions follows the chain as printed. Names may count otherwise.", "data": [{"protein": "B1", "values": [{"measurement": "Km", "setting": "[1]", "result": 500, "unit": "µM"}, {"measurement": "Vmax", "setting": "[1]", "result": "36 μmol/(min mg prot)"}]}, {"protein": "B2", "values": [{"measurement": "Km", "setting": "[2]", "result": 200, "unit": "µM"}, {"measurement": "Vmax", "setting": "[2]", "result": "0.98 ± 0.17", "unit": "µmol/min/mg"}, {"measurement": "Km", "setting": "[3]", "result": 1150, "unit": "µM"}, {"measurement": "Vmax", "setting": "[3]", "result": 1.7, "unit": "µmol/min/mg"}, {"measurement": "Km", "setting": "[4]", "result": 250, "unit": "µM"}, {"measurement": "Vmax", "setting": "[4]", "result": 0.1, "unit": "µmol/min/mg"}]}, {"protein": "B3", "values": [{"measurement": "Km", "setting": "[5]", "result": 1000, "unit": "µM"}]}, {"protein": "B4", "values": [{"measurement": "Km", "setting": "[5]", "result": 5000, "unit": "µM"}]}, {"protein": "B5", "values": [{"measurement": "Km", "setting": "[5]", "result": 1000, "unit": "µM"}]}, {"protein": "B6", "values": [{"measurement": "Km", "setting": "[6]", "result": 4000, "unit": "µM"}]}]}
